Fewer inactive variants are shown than the library holds.
B1: TPR 5TU (parent)
chain: GGAUCUUCUCGAUCUAACAAAAAAGACAAAUCUGCCACAAAGCUUGAGAGCAUCUUCGGAUGCAGAGGCGGCAGCCUUCGGUGGCGCGAUAGCGCCAACGUUCUCAACUAUGACACGCAAAACGCGUGCUCCGUUGAAUGGAGUUUAUCAUG

Variants of: B1
Assay: polymerase ribozyme fitness, log enrichment relative to wild type (log ratio); higher = more active; in vitro selection for triplet polymerase activity
How it was run: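 Each subunit of a heterodimeric triplet polymerase ribozyme was mutagenized into a library by PCR, transcribed, and subjected to one round of in vitro selection, run in triplicate. Libraries were annealed with a biotinylated primer, the partner subunit and triplets, incubated frozen at −7 °C, and extended constructs were gel-excised, captured on streptavidin beads and recovered by RT-PCR. Input and output libraries were sequenced on Illumina, keeping genotypes with ≥10 input reads and ≥1 read per output. Fitness is log base 2 of genotype enrichment divided by wild-type enrichment, from inverse-variance-weighted replicate averages.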

Going from GGAUCUUCUCGAUCUAACAAAAAAGACAAAUCUGCCACAAAGCUUGAGAGCAUCUUCGGAUGCAGCGGCGGCAGCCUUCGGUGGCGCGAUGGCGCCAUCGUUCUCAACUAUGACACGCAAAACGCGUGCUACGUUGAAAGGAGUUUAUCAUG to GGAUCUUCUCGAUCUAACAAAAAAGACAAAUCUGCCACAAAGCUUGAGAGCAUCUUCGGAUGCAAAGGCGGCAGCCUUCGGUGUCGCGAUAGCGCCAACGUUCUCAACUAUGACACGCAAAACGCGUGCUCCGUUGAAUGGAGUUUAUCAUG, the “polymerase ribozyme fitness (log ratio)” value rises from no more than -4.2 to -2.89.

GGAUCUUCUCGAUCUAACAAAAAAGACAAAUCUGCCACAAAGCUUGAGAGCAUCUUCGGAUGCAGCGGCGGCAGCUUUCGGUGGCGCGAUUGCGCCUACGUUCUCAACUAUGAUACGCAAAACGCGUGCUCCGUUGAAUGGGGUUUAUCAUG and GGAUCUUCUCGAUCUAACAAAAAAGACAAAUCUGCCACAAAGCUUGAGAGCAUCUUCGGAUGCACAGGCGGCAGCCUUCGGUGGCCCGAUAGCGCCAACGUUCUCAACUAUGACACGCAAAACGCGUGCUCCGUUGAAUGGAGUUUAUCAUG cannot be ordered by “polymerase ribozyme fitness (log ratio)” value: no more than -4.2 for the first, no more than -4.2 for the second.

First: GGAUCUUCUCGAUCUAACAAAAAAGACAAAUCUGCCACAAAGCUUGAGAGCAUCUUCGGAUGCCGAGGCGACAGCCUUCGGUGGCGCGAUAGCGCCAACGUUCUCAACUAUGACACGCAAAACGCGUGCUCCGUUGAAUGGAGGUUAGCAUG
Second: GGAUCUUCUCGAUCUAACAAAAAAGACAAAUCUGCCACAAAGCUUGAGAGCAUCUUCGGAUGCAAAGGCGGCAGCCUUCGGUGGUGCGAUAGCGCCAACGUUCUCAACUAUGACACGCAAAACGCGUGCUCCGUUGUAAAGAGUUUAUCAUA
The “polymerase ribozyme fitness (log ratio)” value of the first is lower: no more than -4.2 for the first, -3.3 for the second.

First: GGAUCUUCUCGAUCUAACAAAAAAGACAAAUCUGCCACAAAGCUUGAGAGCAUCUUCGGAUGCACAGGCGGCAGCCUUCGGUGGUGCGAUAGCGCCAACGUUCUCAACUAUGACACGCAAAACGCGUGCUCCGUUGAAUGGAGUUUAUCAUG
Second: GGAUCUUCUCGAUCUAACAAAAAAGACAAAUCUGCCACAAAGCUUGAGAGCAUCUUCGGAUGCCGAGGCGGCAGCCUUCGGUCGCGCGAUAGCGCCAACGUUCUCAACUAUGACACGCAAAACGCGUGCUCCGUUGAAUGAAGUUUAUCAUG
The “polymerase ribozyme fitness (log ratio)” value of the first is higher: -4.04 for the first, no more than -4.2 for the second.

Going from GGAUCUUCUCGAUCUAACAAAAAAGACAAAUCUGCCACAAAGCUUGAGAGCAUCUUCGGAUGCAAAGGCGGCAGCCUUCGGUGGCGCGAUAGCGCCAACGUUCUCAACUAUGGCACGCAAAACGCGUGCUCCGUUGAAUGGAGUUUAUCAUG to GGAUCUUCUCGAUCUAACAAAAAAGACAAAUCUGCCACAAAGCUUGAGAGCAUCUUCGGAUGCAAAGGCGGCAGCCUUCGGUGGCGCGUUAGCUCCAACGUUCUCAACUAUGACACGCAAAACGCGUGCUCCGUUGAAUGGAGUUUAUCAUG, the “polymerase ribozyme fitness (log ratio)” value rises from -3.91 to -2.57.

Going from GGAUCUUCUCGAUCUAACAAAAAAGACAAAUCUGCCACAAAGCUUGAGAGCAUCUUCGGAUGCAGGGGCGGCAGCCUUCGGUGGUGCGAUAGCGCCAACGUUCUCAACUAUGACACGCAAAACGCGUGCUCCGUUGAAUGGAGUUUAUCAUG to GGAUCUUCUCGAUCUAACAAAAAAGACAAAUCUGCCACAAAGCUUGAGAGCAUCUUCGGAUGCGGAGGCGGCAGCCUUCGGUGGCGCGAUAGCGCCAAAGUUCUCAACUAUGACACGCAAAACGCGUGCUCCGUUGAAUGGAGUUUAUCAUG, the “polymerase ribozyme fitness (log ratio)” value falls from -3.45 to -3.82.

GGAUCUUCUCGAUCUAACAAAAAAGACAAAUCUGCCACAAAGCUUGAGAGCAUCUUCGGAUGCGGAGGCGGCAGCCUUCGGUGUCGCGAUAGCGCCAACGUUCUCAACUAUGACACGCAAAACGCGUGCUCCGUUGAAUGGAGUUUAUCAAG and GGAUCUUCUCGAUCUAACAAAAAAGACAAAUCUGCCACAAAGCUUGAGAGCAUCUUCGGAUGCAGCGGCGGCAGCCUUCGGUGGCGCGAUAGCGCCAACGUUGUCAAAUAUGACACACAAAACGCGUGCUCCGUUGAAUGGAGUUUAUCAUG cannot be ordered by “polymerase ribozyme fitness (log ratio)” value: no more than -4.2 for the first, no more than -4.2 for the second.

First: GGAUCUUCUCGAUCUAACAAAAAAGACAAAUCUGCCACAAAGCUUGAGAGCAUCUUCGGAUGCUGAGGCGGCAGCCUUCGGUGGCGCGAUAGCGCCAACGUUCUCAACUAUGACACGCAAAACGCGUGCUCCGUUGAAUGGAGUUUAUCAUG
Second: GGAUCUUCUCGAUCUAACAAAAAAGACAAAUCUGCCACAAAGCUUGAGAGCAUCUUCGGAUGCGGAGGCGGCAGCCUUCGGUGGCGCGAUAGCGCCAACGUUCUCAACUAUGACACGCAAAACGCGUGCUCCGUUGAAUGGAGUUUAUCAUG
The “polymerase ribozyme fitness (log ratio)” value of the first is lower: -3.99 for the first, -2.27 for the second.

GGAUCUUCUCGAUCUAACAAAAAAGACAAAUCUGCCACAAAGCUUGAGAGCAUCUUCGGAUGCAGGGGCGGCAGCCUUCGGUGGAGCGAUGGCGCCAACGUUCUCAACUAUGACACGCAAAACGCGUGCUCCGUUGAAUGGAGUUUAACAUG and GGAUCUUCUCGAUCUAACAAAAAAGACAAAUCUGCCACAAAGCUUGAGAGCAUCUUCGGAUGCAAAGGCGGCAGCCUUCGGUGGCGCGAUAGCGCUAACGUUCUCAACUAUCACGCGCAAAACGCGUGCUCCGUUGAAUGGAGAUUAUCAUG cannot be ordered by “polymerase ribozyme fitness (log ratio)” value: no more than -4.2 for the first, no more than -4.2 for the second.

In the case of GGAUCUUCUCGAUCUAACAAAAAAGACAAAUCUGCCACAAAGCUUGAGAGCAUCUUCGGAUGCUGAGGCGGCAGCCUUCGGUGGCGAGAUAGCGUCAACGUUCUCAACUAUGACACGCAAAACGCGUGCUCCGUUGAAAGGAGUUUAUCAUG, the “polymerase ribozyme fitness (log ratio)” value is reported as no more than -4.2.

From the RNAGym collection of RNA variant scans (doi:10.1073/pnas.2313332121)
